Source: patent US20090318338

Test system: RSK2
Sequence (chain, as listed by the source): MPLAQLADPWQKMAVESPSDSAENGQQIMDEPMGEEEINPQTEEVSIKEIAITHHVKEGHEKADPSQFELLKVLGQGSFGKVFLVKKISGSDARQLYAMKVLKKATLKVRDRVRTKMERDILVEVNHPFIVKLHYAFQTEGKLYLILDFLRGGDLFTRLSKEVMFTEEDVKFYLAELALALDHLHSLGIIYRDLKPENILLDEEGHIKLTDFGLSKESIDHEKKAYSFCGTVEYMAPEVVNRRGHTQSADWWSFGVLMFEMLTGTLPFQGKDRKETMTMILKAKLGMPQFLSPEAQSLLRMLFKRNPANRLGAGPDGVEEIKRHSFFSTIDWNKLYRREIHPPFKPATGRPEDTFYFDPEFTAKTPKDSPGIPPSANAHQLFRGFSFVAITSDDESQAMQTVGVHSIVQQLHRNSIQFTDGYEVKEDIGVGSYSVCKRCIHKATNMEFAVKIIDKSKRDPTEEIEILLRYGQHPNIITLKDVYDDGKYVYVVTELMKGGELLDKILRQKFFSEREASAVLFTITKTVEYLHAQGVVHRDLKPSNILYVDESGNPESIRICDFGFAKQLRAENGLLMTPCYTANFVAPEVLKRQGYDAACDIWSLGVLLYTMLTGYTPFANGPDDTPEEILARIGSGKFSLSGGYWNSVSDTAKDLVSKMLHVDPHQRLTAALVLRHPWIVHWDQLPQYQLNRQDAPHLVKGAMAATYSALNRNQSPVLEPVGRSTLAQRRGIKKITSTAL

With WWP1 the RSK2 ubiquitination was “WWP1 can promote low levels of RSK2 ubiquitination”.
